This passage reports CCK secretion by STC-1 cells (ELISA), peptide results from EP3916006A1.

One assay concerns the target calcium sensing receptor (UniProt Q9QY96). Briefly: cell-based or functional assay.
The target in the next assay is GPR93 (UniProt Q149R9). Briefly: cell-based or functional assay.
Sequence of UniProt Q149R9 (Q149R9 whole entry): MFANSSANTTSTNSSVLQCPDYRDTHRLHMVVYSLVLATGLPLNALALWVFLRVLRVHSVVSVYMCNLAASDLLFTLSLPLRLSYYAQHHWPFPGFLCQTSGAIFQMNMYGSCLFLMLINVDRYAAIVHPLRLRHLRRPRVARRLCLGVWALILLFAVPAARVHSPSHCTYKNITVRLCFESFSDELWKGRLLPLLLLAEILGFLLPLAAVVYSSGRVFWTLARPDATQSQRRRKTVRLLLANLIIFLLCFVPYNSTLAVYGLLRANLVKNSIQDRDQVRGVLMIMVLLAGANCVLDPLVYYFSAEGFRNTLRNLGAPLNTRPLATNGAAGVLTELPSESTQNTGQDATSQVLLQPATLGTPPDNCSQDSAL

Sequence of UniProt Q9QY96 (Q9QY96 20-1079 limits assumed): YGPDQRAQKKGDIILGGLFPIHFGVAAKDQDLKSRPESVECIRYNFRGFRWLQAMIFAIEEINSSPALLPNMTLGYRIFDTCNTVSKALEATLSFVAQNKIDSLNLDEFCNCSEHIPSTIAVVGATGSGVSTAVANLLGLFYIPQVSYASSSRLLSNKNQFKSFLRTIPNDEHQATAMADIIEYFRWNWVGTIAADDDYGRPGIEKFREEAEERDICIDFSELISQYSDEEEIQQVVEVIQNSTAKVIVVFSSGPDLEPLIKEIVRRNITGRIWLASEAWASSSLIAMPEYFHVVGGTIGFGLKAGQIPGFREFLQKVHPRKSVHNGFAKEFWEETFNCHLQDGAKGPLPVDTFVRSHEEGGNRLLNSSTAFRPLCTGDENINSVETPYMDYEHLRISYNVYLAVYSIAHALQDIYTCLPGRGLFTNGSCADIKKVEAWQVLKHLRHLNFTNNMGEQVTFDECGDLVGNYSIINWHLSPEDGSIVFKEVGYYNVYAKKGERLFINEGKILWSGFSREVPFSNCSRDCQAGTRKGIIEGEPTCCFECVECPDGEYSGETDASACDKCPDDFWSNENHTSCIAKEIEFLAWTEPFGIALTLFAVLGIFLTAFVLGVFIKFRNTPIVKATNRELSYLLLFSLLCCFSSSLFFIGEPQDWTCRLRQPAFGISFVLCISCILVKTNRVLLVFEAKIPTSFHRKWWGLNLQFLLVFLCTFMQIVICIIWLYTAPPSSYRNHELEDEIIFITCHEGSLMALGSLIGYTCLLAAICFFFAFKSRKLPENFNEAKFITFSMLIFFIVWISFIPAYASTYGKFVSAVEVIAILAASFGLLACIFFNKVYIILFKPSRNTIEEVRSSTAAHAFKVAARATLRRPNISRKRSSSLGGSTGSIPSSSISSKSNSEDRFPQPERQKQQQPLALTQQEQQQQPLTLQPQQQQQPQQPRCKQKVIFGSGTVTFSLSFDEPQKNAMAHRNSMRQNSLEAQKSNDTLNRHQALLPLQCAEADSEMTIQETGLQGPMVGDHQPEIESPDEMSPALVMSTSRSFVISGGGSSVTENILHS

As to “synthetic peptide SEQ ID NO: 5 90RYLGYLE96, derived from αs1-casein”, in the assay with calcium sensing receptor, the CCK secretion by STC-1 cells (ELISA), peptide at 0.125 mM with NPS2143 at 6 µM (198 pM with vehicle) came to 88 pM. In the assay with GPR93, this substance registered a CCK secretion by STC-1 cells (ELISA), peptide at 0.125 mM with TC LPA5 4 at 4 µM (198 pM with vehicle) of 111 pM.
